These results are taken from patent publication US20060147463A1.

The target in test [1] is carboxy-terminal truncated Hsp20 (Babesia bovis) (Babesia bovis). The test is described as follows: size exclusion FPLC (Superose 6) (self-association). Background: In gel filtration, larger molecules generally elute earlier.
A further test deals with alcohol dehydrogenase. Put plainly: cell-based or functional assay.

In test [1], “carboxy-terminal truncated Hsp20 (Babesia bovis)” had a percent of protein as dimer of 42%. Take “His-tagged Hsp20 from Babesia bovis (full length)”: in the test with alcohol dehydrogenase, the molar ratio of greatest reduction in light scattering at time infinity (molar ratio Hsp20 to ADH) was found to be 2 and the reduction in light scattering of ADH at 58° C., 60 minutes, molar ratio 2:1 Hsp20:ADH was found to be 2.3 fold.
